Columns and labels:
Test in all cases: Native-PAGE of mixed CL and Im proteins, 30 min at room temperature
[1] = molecular target: T1, Im8 protein (Escherichia coli, UniProt P09881 1-85)
T1 construct: Expressed from pET23a in E. coli BL21(DE3) and purified on nickel beads; a tag is not described
T1 sequence: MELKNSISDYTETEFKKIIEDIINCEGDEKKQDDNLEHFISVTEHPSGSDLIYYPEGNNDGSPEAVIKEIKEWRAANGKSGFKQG

[2] = molecular target: T2, Im7 protein (Escherichia coli, UniProt Q03708 1-87)
T2 construct: Expressed from pET23a in E. coli BL21(DE3) and purified on nickel beads; a tag is not described
T2 sequence: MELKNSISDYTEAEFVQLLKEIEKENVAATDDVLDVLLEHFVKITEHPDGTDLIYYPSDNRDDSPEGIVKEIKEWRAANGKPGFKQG

[3] = molecular target: T3, Im9 protein (Escherichia coli, UniProt P13479 1-86)
T3 construct: Expressed from pET23a in E. coli BL21(DE3) and purified on nickel beads; a tag is not described
T3 sequence (P13479 whole entry): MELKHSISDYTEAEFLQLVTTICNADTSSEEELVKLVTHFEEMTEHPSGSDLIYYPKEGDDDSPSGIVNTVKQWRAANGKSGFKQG

[4] = molecular target: T4, Im2 protein (Escherichia coli, UniProt P04482 1-86)
T4 construct: Expressed from pET23a in E. coli BL21(DE3) and purified on nickel beads; a tag is not described; also called immunity 2
T4 sequence: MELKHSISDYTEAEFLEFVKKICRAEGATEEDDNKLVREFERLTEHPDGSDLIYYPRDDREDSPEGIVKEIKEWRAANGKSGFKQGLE

B1: CL8 protein (other)
chain: MSKSNEPGKATGEGKPVGDKWLDDAGKDSGAPIPDRIADKLRDKEFENFDDFRETFWEEVSKDPELSKQFNPGNKKRLSQGLAPRARNKDTVGGRRSFELNHQKPIEQDGGVYDMDNLRITTPKRNIDIEG
notes: Expressed from pET23a in E. coli BL21(DE3) and purified on nickel beads; a tag is not described
B1: binds [1].

B2: CL7 protein (other)
chain: MSKSNEPGKATGEGKPVNNKWLNNAGKDLGSPVPDRIANKLRDKEFESFDDFRETFWEEVSKDPELSKQFSRNNNDRMKVGKAPKTRTQDVSGKRTSFELNHQKPIEQNGGVYDMDNISVVTPKRNIDIEG
notes: as for B1
B2: binds [2].

B3: CL9 protein (other)
chain: MSKSNEPGKATGEGKPVGDKWLDDAGKDSGAPIPDRIADKLRDKEFESFDDFRETVWEEVSKDPELSKNLNPSNKSSVSKGYSPFTPKNQQVGGRKVYELNHQKPIEQGGEVYDMDNIRVTTPKRNIDIEG
notes: as for B1
B3: binds [3].

B4: CL2 protein (other)
chain: MSKSNEPGKATGEGKPVGDKWLDDAGKDSGAPIPDRIADKLRDKEFENFDDFRETFWEEVSKDPDLSKQFKGSNKTNIQKGKAPFARKKDQVGGRERFELNHQKPIEQDGGVYDMNNIRVTTPKRNIDIEG
notes: as for B1
B4: binds [4].
